Data set [1] addresses T1, BLMcore G1120R (Homo sapiens, UniProt P54132 636-1298, G1120R). Put plainly: EMSA; 5 mM MgCl2; smear; estimated apparent KD; 50 mM Tris-HCl pH 7.5, 50 mM KCl, 5 mM MgCl2, 1 mM DTT, 0.1 mg/mL BSA, 40 nM DNA, 30 min room temperature; 5% gel in TBE + 100 mM KCl at 4 C. The settings on record: protein: recombinant, (HisTrap purified).
In data set [2] the target is BLMcore K869A K870A (Homo sapiens, UniProt P54132 636-1298, K869A;K870A). The data set is described as above. The settings on record: protein: recombinant, (HisTrap purified).
Sequence of BLMcore K869A K870A (P54132 636-1298 K869A/K870A): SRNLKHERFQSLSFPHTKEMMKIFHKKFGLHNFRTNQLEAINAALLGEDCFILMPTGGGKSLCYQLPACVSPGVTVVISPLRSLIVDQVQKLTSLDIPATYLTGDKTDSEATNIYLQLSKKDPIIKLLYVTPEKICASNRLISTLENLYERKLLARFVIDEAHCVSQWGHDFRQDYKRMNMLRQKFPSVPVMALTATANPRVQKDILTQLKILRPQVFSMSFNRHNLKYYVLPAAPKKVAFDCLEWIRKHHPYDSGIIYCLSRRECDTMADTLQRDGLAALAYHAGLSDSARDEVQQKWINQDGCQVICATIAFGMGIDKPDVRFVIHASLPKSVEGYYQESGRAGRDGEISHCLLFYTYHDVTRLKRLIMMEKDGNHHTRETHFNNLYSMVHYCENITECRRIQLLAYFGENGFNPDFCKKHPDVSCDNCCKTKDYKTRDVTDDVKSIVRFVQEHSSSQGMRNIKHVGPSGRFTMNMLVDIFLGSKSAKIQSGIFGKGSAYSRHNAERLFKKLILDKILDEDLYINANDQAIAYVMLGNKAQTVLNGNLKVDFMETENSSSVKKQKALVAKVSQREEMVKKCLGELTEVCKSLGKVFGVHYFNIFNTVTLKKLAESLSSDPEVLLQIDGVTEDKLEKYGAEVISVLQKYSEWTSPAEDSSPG
Data set [3] deals with T2, BLMcore P868L (Homo sapiens, UniProt P54132 636-1298, P868L). Described as above. Conditions: protein: recombinant, (HisTrap purified).
T2 sequence (P54132 636-1298 P868L): as the sequence (P54132 636-1298 K869A/K870A) above, with P233L, A234K, A235K counted along it
Data set [4] addresses T1, BLMcore G1120R. Put plainly: EMSA; 5 mM MgCl2; distinct shift; estimated apparent KD; 50 mM Tris-HCl pH 7.5, 50 mM KCl, 5 mM MgCl2, 1 mM DTT, 0.1 mg/mL BSA, 40 nM DNA, 30 min room temperature; 5% gel in TBE + 100 mM KCl at 4 C. The settings on record: protein: recombinant; (HisTrap purified); label: 3'-FAM on oAV320 (strand 2); 18 bp duplex, 3' overhang 39 nt on strand 1.

The target of data set [5] is T2, BLMcore P868L. Described as above. Conditions: protein: recombinant; (HisTrap purified); label: 3'-FAM on oAV320 (strand 2); 18 bp duplex, 3' overhang 39 nt on strand 1.
The mark [6] stands for this setting: label: 3'-FAM, intramolecular G4 (folded in 100 mM KCl) with 3' T-rich ssDNA tail.

The text below walks through data of PMC10237670, “Biochemical properties of naturally occurring human bloom helicase variants”.

T1 sequence (P54132 636-1298 G1120R): as the sequence (P54132 636-1298 K869A/K870A) above, with A234K, A235K, G485R counted along it

In the case of GGGTTAGGGTTAGGGTTAGGGTTTTTTTTTT (structured_DNA) [G4 DNA with 3' ssDNA overhang (FAM-oRC96)], the values for the Kd in data set [1] (setting [6]), in data set [2] (setting [6]) and in data set [3] (setting [6]) were approximately 250 nM, approximately 625 nM and approximately 125 nM, respectively.
Turning to TTTTTTTTTTTTTTTTTTTTTTTTTTTTTT (ssDNA) [FAM-dT30 (ssDNA)], the Kd in data set [1] (single strand) was approximately 62.5 nM; in data set [2] (single strand), approximately 312 nM; in data set [3] (single strand), approximately 62.5 nM.

B1: partial dsDNA with 3' ssDNA overhang (oRC32/FAM-oAV320) (dsDNA)
DNA 1: TGGCGACGGCAGCGAGGCTTAGGGTTAGCGTTAGCGTTAGGGTTTTTTTTTTTTTTT
DNA 2: GCCTCGCTGCCGTCGCCA
For B1, the Kd in data set [4] and in data set [5] was approximately 62.5 nM in each case.
